US20050208585A1 (published 2005)

T1: mpl-Ig (UniProt P40238 26-491)
T1 construct: From conditioned media of mpl-Ig-transfected 293 cells, captured on rabbit anti-human IgG Fc; also called mpl-IgG; not shown: Ig part, captured by anti-human IgG Fc
T1 sequence (looked up): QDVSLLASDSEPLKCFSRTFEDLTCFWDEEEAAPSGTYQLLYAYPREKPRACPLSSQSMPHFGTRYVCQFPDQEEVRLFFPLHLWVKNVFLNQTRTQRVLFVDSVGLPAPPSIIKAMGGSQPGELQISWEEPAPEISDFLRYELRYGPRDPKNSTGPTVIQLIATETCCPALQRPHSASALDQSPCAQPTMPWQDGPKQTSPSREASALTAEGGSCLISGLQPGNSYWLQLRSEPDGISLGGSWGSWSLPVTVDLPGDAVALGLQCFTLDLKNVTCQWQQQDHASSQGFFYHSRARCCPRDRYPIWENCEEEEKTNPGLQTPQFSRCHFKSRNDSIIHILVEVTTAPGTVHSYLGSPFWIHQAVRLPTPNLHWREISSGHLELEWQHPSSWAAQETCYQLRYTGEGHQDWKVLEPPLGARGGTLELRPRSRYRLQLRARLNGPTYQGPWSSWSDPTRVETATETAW

T2: human c-mpl (thrombopoietin receptor) on HU-03 cells and human platelets (human, UniProt P40238 26-635)
T2 construct: whole, on cells; also called mpl receptor; TPO receptor
T2 sequence (looked up): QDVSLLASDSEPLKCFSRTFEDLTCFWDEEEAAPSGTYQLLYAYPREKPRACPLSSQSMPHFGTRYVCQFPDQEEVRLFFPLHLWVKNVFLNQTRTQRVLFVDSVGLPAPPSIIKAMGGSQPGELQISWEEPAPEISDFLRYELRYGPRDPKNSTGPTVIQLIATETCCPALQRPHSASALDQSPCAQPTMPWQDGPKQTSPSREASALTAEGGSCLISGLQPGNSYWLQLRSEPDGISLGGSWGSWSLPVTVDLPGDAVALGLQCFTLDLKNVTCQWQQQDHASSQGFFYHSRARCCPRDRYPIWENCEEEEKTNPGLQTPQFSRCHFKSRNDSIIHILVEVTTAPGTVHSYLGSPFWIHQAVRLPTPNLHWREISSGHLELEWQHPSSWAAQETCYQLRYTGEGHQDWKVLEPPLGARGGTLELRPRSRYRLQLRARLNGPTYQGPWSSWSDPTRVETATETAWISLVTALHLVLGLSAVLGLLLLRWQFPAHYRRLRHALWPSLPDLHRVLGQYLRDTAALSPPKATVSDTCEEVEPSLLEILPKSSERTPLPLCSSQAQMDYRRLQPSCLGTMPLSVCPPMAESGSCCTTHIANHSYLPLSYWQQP


What was measured:
[1] = target: T1, mpl-Ig; experiment: TPO receptor-binding inhibition ELISA: biotinylated TPO on captured mpl-Ig
[2] = target: T2, human c-mpl (thrombopoietin receptor) …; experiment: competition with 100 pM 125I-TPO for binding to HU-03 cells
[3] = target: mpl-Rse.gD chimeric receptor (human, UniProt P40238 26-491); experiment: cell-based or functional assay
[4] = target: T2, human c-mpl (thrombopoietin receptor) …; experiment: competition with 100 pM 125I-TPO for binding to human platelets
[5] = target: T2, human c-mpl (thrombopoietin receptor) …; experiment: cell-based or functional assay
[6] = target: human c-mpl (thrombopoietin receptor) on HU-03 cells and human platelets (human) (UniProt P40238); experiment: competition with 100 pM 125I-TPO for binding to HU-03 cells
[7] = target: human c-mpl (thrombopoietin receptor) on HU-03 cells and human platelets (human) (UniProt P40238); experiment: cell-based or functional assay

Row | Binder | IC50 [1] [nM] | IC50 [2] [nM] | KIRA (ED50) [3] [nM] | IC50 [4] [nM] | Hu3 Proliferation (ED50) [5] [nM] | IC50 [6] [nM] | Hu3 Proliferation (ED50) [7] [nM]
1 | 12D5 Fab (Fab, V domains shown) VH: QVQLVESGGGLVKPGGSLRLSCAASGFTFSSHNMNWVRQAPGKGLEWVSSISSSSSYIYYADSVKGRFTISRDNAKNSLYLQMNSLRAEDTAVYYCARDRGSTGMDVWGRGTLVTVSS VL: DIVMTQSPSTLSASIGDRVTITCRASEGIYHWLAWYQQKPGKAPKLLIYKASSLASGAPSRFSGSGSGTDFTLTISSLQPDDFATYYCQQYSNYPLTFGGGTELEIKR | 1000 | 500 | 4 |  |  |  | 
2 | 12B5 IgG (antibody, V domains shown) VH: QVQLVQSGGGLVRPGGSLSLSCAVSGITLRTYGMHWVRQAPGKGLEWVAGISFDGRSEYYADSVQGRFTISRDSSKNTLYLQMNSLRAEDTAVYYCARGAHYGFDIWGQGTMVTVSS VL: DIVMTQSPSTLSASIGDRVTITCRASEGIYHWLAWYQQKPGKAPKLLIYKASSLASGAPSRFSGSGSGTDFTLTISSLQPDDFATYYCQQYSNYPLTFGGGTELEIKR | 0.152 | 10 |  | 300 | 0.03 |  | 
3 | 12D5 IgG (antibody, V domains shown) VH: QVQLVESGGGLVKPGGSLRLSCAASGFTFSSHNMNWVRQAPGKGLEWVSSISSSSSYIYYADSVKGRFTISRDNAKNSLYLQMNSLRAEDTAVYYCARDRGSTGMDVWGRGTLVTVSS VL: DIVMTQSPSTLSASIGDRVTITCRASEGIYHWLAWYQQKPGKAPKLLIYKASSLASGAPSRFSGSGSGTDFTLTISSLQPDDFATYYCQQYSNYPLTFGGGTELEIKR | 0.45 | 10 | 3 | 500 |  |  | 
4 | 12E10 scFv (scFv) MAQVQLQQSGPGLVKPSETLSLTCTVSGDSISSYYWSWIRQPPGKGLEWIGYIYYSGSTNYNPSLKSRVTISVDTSKSQFSLKLSSVTAADTAVYYCARGRYFDVWGRGTMVTVSSGGGGSGGGGSGGGGSSYVLTQPPSVSGSPGQSITISCTGTSSDVGGYNYVSWYQQHPGKAPKLMIYEGSKRPSGVSNRFSGSKSGNTASLTISGLQAEDEADYYCSSYTTRSTRVFGGGTKLTVLGAA | 1.6 | 5 |  | 5 | 0.005 |  | 
5 | 12B5 Fab (Fab, from another filing) scFv: MAQVQLVQSGGGLVRPGGSLSLSCAVSGITLRTYGMHWVRQAPGKGLEWVAGISFDGRSEYYADSVQGRFTISRDSSKNTLYLQMNSLRAEDTAVYYCARGAHYGFDIWGQGTMVTVSSGGGGTGGGGSGGGGSDIQMTQSPSTLSASIGDRVTITCRASEGIYHWLAWYQQKPGKAPKLLIYKASSLASGAPSRFSGSGSGTDFTLTISSLQPDDFATYYCQQYSNYPLTFGGGTELEIKRAA |  |  | 3 |  |  | 900 | > 1000
6 | 12B5 scFv (scFv) MAQVQLVQSGGGLVRPGGSLSLSCAVSGITLRTYGMHWVRQAPGKGLEWVAGISFDGRSEYYADSVQGRFTISRDSSKNTLYLQMNSLRAEDTAVYYCARGAHYGFDIWGQGTMVTVSSGGGGTGGGGSGGGGSDIQMTQSPSTLSASIGDRVTITCRASEGIYHWLAWYQQKPGKAPKLLIYKASSLASGAPSRFSGSGSGTDFTLTISSLQPDDFATYYCQQYSNYPLTFGGGTELEIKRAA | 17 | 10 | 1 | 100 | 0.02 |  | 
